Measured values published in patent publication US20240101716A1 (LA NOVA MEDICINES DEVELOPMENT, published 2024).

Assays:
[1] = biological target: T1, PD-L1 expressed on cells (UniProt Q9NZQ7 19-290, limits assumed); assay: FACS binding test on PD-L1 cell line, Geom.Mean; unit from the axis log(nm)
T1 construct: whole, on cells

[2] = biological target: PD-L1 (blocking assay of Example 11) (UniProt Q9NZQ7 19-239, limits assumed); assay: cell-based or functional assay
[3] = biological target: T2, recombinant human SIRPα variant 2 protein (human, UniProt P78324 31-370, limits assumed); assay: ELISA on coated recombinant human SIRPα v2, OD450
T2 construct: polymorphic variant 2; also called SIRPα v2; hSIRPαV2
Method: After coating of the antigen, the wells were blocked with PBS/0.05% Tween (PBST) with 1% BSA for 1 h at RT.
Between all incubation steps, the wells of the plate were washed with PBST three times. […]

Sequence of PD-L1 (blocking assay of Example 11) (Q9NZQ7 19-239 limits assumed): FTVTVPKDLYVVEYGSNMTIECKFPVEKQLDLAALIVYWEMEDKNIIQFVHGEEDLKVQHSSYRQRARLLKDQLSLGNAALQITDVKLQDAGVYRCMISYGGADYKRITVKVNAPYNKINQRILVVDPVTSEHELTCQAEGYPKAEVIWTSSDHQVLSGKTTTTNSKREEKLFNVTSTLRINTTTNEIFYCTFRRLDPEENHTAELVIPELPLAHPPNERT
T1 sequence (Q9NZQ7 19-290 limits assumed): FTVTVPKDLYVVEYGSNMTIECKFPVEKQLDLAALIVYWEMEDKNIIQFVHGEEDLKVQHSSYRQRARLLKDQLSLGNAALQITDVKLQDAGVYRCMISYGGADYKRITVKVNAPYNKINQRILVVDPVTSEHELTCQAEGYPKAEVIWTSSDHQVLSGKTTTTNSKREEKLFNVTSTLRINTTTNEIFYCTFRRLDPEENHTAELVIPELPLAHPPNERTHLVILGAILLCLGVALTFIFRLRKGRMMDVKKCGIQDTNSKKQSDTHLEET
T2 sequence (P78324 other isoform, or with tags, fused parts or gaps mutant limits assumed): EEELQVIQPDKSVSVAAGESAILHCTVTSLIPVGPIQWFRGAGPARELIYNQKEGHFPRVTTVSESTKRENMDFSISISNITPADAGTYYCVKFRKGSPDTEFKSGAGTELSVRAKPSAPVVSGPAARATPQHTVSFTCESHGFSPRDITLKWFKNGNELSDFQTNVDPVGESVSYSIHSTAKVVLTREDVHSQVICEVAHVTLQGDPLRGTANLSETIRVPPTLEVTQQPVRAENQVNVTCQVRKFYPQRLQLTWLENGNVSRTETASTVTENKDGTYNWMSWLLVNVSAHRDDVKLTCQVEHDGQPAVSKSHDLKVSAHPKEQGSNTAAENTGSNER

Binder | EC50 [1] [nM] | EC50, luminescence (RLU) in the PD-1/PD-L1 Blockade Assay [2] [nM] | EC50 [3] [µg/mL]
PD-L1/SIRPa-LC2 (bispecific antibody, human IgG4 S228P, kappa, Format III: sdAb at the C-terminus of the light chain (300A6A6); also called PD-L1/SIRPα-LC2) heavy: not shown light: DIQMTQSPSSLSASVGDRVTITCQASQDIGNKLIWYQQKPGKAPKLLIYYVTNLPGGVPSRFSGSGSGTDFTLTISSLQPEDFATYYCLQYKQNPLTFGQGTKLEIKRTVAAPSVFIFPPSDEQLKSGTASVVCLLNNFYPREAKVQWKVDNALQSGNSQESVTEQDSKDSTYSLSSTLTLSKADYEKHKVYACEVTHQGLSSPVTKSFNRGECGGGGSGGGGSGGGGSEVQLVESGGGLVQPGGSLRLSCAASGRTFVTYGMGWFRQAPGKGREFVSAISWSGSMTSYGDSVKGRFTISRDNAKNTLYLQMNSLRPEDTAVYYCAAALGAVVYTTREPYTYWGQGTLVTVSS | 0.912 | 1.55 | –
300A6A6 (antibody, V domains shown, murine hybridoma antibody; also called mouse anti-SIRPα mAb 300A6A6) VH: QVQLQQSGTELVKPGSSVKISCKASGYTFTSNYIHWIRQQPGNGLEWIGWIYPGDGDTNYNQKFNGKATLTADKSSSTAYMQLSSLTSEDYAVYFCAINYGGIWFAYWGQGTLVTVSS VL: DIQMTQSPSSMSASLGDRVTITCQASQDIGNKLIWFQQKPGKSPRLMIHYVTNLPGGVPLRFSGSRSGSDYSLTISSLESEDMADYYCLQYKQNPLTFGSGTKLEIK | – | – | 0.0105
PD-L1/SIRPa-HC1 (bispecific antibody, human IgG4 S228P, kappa, Format I: AS11948SVH12 sdAb at the C-terminus of IgG4 Fc of 02-hz52 (248G3F6); also called PD-L1/SIRPα-HC1) heavy: not shown light: EIVLTQSPGTLSLSPGERATLSCRASSSVSSSYLYWYQQKPGQAPRLLIYSTSNLASGIPDRFSGSGSGTDYTLTISRLEPEDAAVYFCHQWYSYPRTFGGGTKVEIKRTVAAPSVFIFPPSDEQLKSGTASVVCLLNNFYPREAKVQWKVDNALQSGNSQESVTEQDSKDSTYSLSSTLTLSKADYEKHKVYACEVTHQGLSSPVTKSFNRGEC | 0.321 | 0.9 | –
248G3F6 (antibody, V domains shown, murine hybridoma antibody; also called mouse anti-SIRPα mAb 248G3F6) VH: EVQLQQSGAELVKPGASVKLSCTASGFNFEDTYMHWVKQRPDQGLEWIGRIDPADGDTKYNPKFQDKATITVDTSSNTAYLQLSSLTSEDTAVYYCVRGNYVNWGQGTTLTVSS VL: QIVLIQSPAIMSASPGERVTLTCRASSSVSSSYLYWYQQKPGSSPKLWIYSTSNLASGVPARFSGSGSGTSYSLTISSMEAEDAASYFCHQWYSYPRTFGGGTKLEIK | – | – | 0.0136
PD-L1/SIRPa-LN2 (bispecific antibody, human IgG4 S228P, kappa, Format IV: sdAb at the N-terminus of the light chain (300A6A6); also called PD-L1/SIRPα-LN2) heavy: not shown light: EVQLVESGGGLVQPGGSLRLSCAASGRTFVTYGMGWFRQAPGKGREFVSAISWSGSMTSYGDSVKGRFTISRDNAKNTLYLQMNSLRPEDTAVYYCAAALGAVVYTTREPYTYWGQGTLVTVSSGGGGSGGGGSGGGGSDIQMTQSPSSLSASVGDRVTITCQASQDIGNKLIWYQQKPGKAPKLLIYYVTNLPGGVPSRFSGSGSGTDFTLTISSLQPEDFATYYCLQYKQNPLTFGQGTKLEIKRTVAAPSVFIFPPSDEQLKSGTASVVCLLNNFYPREAKVQWKVDNALQSGNSQESVTEQDSKDSTYSLSSTLTLSKADYEKHKVYACEVTHQGLSSPVTKSFNRGEC | 0.205 | 0.873 | –
PD-L1/SIRPa-HN2 (bispecific antibody, human IgG4 S228P, kappa, Format II: sdAb at the N-terminus of the heavy chain (300A6A6); also called PD-L1/SIRPα-HN2) heavy: not shown light: DIQMTQSPSSLSASVGDRVTITCQASQDIGNKLIWYQQKPGKAPKLLIYYVTNLPGGVPSRFSGSGSGTDFTLTISSLQPEDFATYYCLQYKQNPLTFGQGTKLEIKRTVAAPSVFIFPPSDEQLKSGTASVVCLLNNFYPREAKVQWKVDNALQSGNSQESVTEQDSKDSTYSLSSTLTLSKADYEKHKVYACEVTHQGLSSPVTKSFNRGEC | 0.269 | 0.908 | –
